Source: US20200087367A1 (ACCELERON PHARMA, published 2020)
Like-named read-outs stand apart in the source and are kept apart here.

B1: BMP10 (ligand)
chain: NAKGNYCKRTPLYIDFKEIGWDSWIIAPPGYEAYECRGVCNYPLAEHLTPTKHAIIQALVHLKNSQKASKACCVPTKLEPISILYLDKGVVTYKFKYEGMAVSECGCR
notes: also called hBMP-10; hBMP10
B2: BMP9 (ligand, human, UniProt Q9UK05 320-429, looked up)
chain: SAGAGSHCQKTSLRVNFEDIGWDSWIIAPKEYEAYECKGGCFFPLADDVTPTKHAIVQTLVHLKFPTKVGKACCVPTKLSPISVLYKDDMGVPTLKYHYEGMSVAECGCR
notes: also called hBMP-9; hBMP9

Legend:
hENG(26-437)-hFc [1] = molecular target: T1, hENG(26-437)-hFc (human, UniProt P17813 26-437); experiment: SPR kinetics; HEK293-cell-derived protein
T1 construct: HEK 293, purified; not shown: linker and human IgG1 Fc domain
T1 sequence: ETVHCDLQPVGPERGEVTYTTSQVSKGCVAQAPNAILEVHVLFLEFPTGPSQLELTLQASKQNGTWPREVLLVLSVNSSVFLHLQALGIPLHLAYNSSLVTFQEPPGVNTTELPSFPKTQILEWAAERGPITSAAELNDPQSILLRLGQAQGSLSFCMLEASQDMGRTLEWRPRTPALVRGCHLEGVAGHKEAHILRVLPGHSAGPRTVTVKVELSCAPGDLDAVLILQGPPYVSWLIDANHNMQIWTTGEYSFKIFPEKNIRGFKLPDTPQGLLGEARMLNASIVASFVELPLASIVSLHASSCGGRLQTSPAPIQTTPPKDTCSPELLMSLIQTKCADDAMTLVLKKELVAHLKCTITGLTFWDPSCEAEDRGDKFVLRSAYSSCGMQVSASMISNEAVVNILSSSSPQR

hENG(360-586)-hFc [2] = molecular target: T2, hENG(360-586)-hFc (human, UniProt P17813 360-586); experiment: SPR, captured hENG-hFc, soluble BMP10; '-' = Binding undetectable
T2 construct: HEK 293, purified; not shown: linker and human IgG1 Fc domain
T2 sequence: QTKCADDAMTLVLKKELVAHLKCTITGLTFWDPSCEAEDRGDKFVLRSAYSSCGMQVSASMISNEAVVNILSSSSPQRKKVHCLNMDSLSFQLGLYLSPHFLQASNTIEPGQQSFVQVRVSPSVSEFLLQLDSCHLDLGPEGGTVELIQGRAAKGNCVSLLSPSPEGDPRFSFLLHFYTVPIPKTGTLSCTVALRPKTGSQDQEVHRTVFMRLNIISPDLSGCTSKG
Procedure: (§1) SPR methodology was used to screen these hENG-hFc protein variants for high-affinity binding to human BMP9 and BMP10. In these experiments, captured hENG-hFc proteins were exposed to soluble BMP9 or BMP10 at 100 nM each.

hENG(133-346)-hFc [3] = molecular target: T3, hENG(133-346)-hFc (human, UniProt P17813 133-346); experiment: as above
T3 construct: HEK 293, purified; not shown: linker and human IgG1 Fc domain
T3 sequence: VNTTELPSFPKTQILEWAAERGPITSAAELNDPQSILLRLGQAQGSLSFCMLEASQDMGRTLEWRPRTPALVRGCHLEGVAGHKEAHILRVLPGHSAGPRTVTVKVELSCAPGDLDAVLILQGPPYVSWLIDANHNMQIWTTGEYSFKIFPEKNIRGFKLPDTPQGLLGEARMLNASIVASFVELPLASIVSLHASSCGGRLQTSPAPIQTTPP
Procedure: as §1

hENG(458-581)-hFc [4] = molecular target: T4, hENG(458-581)-hFc (human, UniProt P17813 458-581); experiment: as above
T4 construct: Expressed in COS cells, not purified; not shown: linker and human IgG1 Fc domain
T4 sequence: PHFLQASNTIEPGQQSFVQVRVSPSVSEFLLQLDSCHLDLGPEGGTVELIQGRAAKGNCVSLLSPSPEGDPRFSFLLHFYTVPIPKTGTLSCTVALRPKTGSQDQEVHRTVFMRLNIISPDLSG
Procedure: as §1

hENG(360-586)-hFc [5] = molecular target: T2, hENG(360-586)-hFc; experiment: SPR, captured hENG-hFc, soluble BMP9; '-' = Binding undetectable
Procedure: as §1

hENG(26-329)-hFc = molecular target: T5, hENG(26-329)-hFc (human, UniProt P17813 26-329); experiment: as above
T5 construct: HEK 293, purified; not shown: linker and human IgG1 Fc domain
T5 sequence: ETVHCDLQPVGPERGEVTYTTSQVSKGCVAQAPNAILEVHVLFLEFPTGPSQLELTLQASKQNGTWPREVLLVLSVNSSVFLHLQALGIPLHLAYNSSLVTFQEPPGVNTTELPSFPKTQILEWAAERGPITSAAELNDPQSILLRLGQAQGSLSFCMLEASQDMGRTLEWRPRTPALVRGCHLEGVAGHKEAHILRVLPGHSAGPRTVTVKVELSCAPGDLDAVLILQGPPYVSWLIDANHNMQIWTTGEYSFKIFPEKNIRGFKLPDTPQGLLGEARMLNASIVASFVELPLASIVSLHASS
Procedure: as §1

hENG(438-586)-hFc = molecular target: T6, hENG(438-586)-hFc (human, UniProt P17813 438-586); experiment: as above
T6 construct: HEK 293, purified; not shown: linker and human IgG1 Fc domain
T6 sequence: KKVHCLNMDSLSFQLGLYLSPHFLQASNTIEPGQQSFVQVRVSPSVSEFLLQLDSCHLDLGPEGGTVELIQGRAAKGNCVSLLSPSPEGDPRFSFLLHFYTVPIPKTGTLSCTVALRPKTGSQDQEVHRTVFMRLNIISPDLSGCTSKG
Procedure: as §1

hENG(129-346)-hFc = molecular target: T7, hENG(129-346)-hFc (human, UniProt P17813 129-346); experiment: as above
T7 construct: HEK 293, purified; not shown: linker and human IgG1 Fc domain
T7 sequence: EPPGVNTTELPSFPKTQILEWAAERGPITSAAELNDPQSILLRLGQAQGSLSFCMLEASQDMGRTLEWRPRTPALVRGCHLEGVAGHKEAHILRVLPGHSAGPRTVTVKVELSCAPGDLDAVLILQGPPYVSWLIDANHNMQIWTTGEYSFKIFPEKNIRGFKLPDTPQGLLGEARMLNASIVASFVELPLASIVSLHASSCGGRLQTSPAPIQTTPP
Procedure: as §1

hENG(133-346)-hFc [6] = molecular target: T3, hENG(133-346)-hFc; experiment: as above
Procedure: as §1

hENG(458-581)-hFc [7] = molecular target: T4, hENG(458-581)-hFc; experiment: as above
Procedure: as §1

hENG(458-586)-hFc = molecular target: T8, hENG(458-586)-hFc (human, UniProt P17813 458-586); experiment: as above
T8 construct: Expressed in COS cells, not purified; not shown: linker and human IgG1 Fc domain
T8 sequence: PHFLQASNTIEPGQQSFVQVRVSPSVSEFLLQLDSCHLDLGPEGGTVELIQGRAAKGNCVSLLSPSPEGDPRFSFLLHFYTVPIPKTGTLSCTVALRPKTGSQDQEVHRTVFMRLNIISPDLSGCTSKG
Procedure: as §1

hENG(26-437)-hFc [8] = molecular target: T1, hENG(26-437)-hFc; experiment: SPR kinetics; HEK293-cell-derived protein; remark: listed apart in the source

| Binder | Kd (hENG(26-437)-hFc [1]) [nM] | koff (hENG(26-437)-hFc [1]) [s⁻¹] | binding result (hENG(360-586)-hFc [2]) | binding result (hENG(133-346)-hFc [3]) | binding result (hENG(458-581)-hFc [4]) | binding result (hENG(360-586)-hFc [5]) | binding result (hENG(26-329)-hFc) | binding result (hENG(438-586)-hFc) | binding result (hENG(129-346)-hFc) | binding result (hENG(133-346)-hFc [6]) | binding result (hENG(458-581)-hFc [7]) | binding result (hENG(458-586)-hFc) | Kd (hENG(26-437)-hFc [8]) [nM] | koff (hENG(26-437)-hFc [8]) [s⁻¹] |
| --- | --- | --- | --- | --- | --- | --- | --- | --- | --- | --- | --- | --- | --- | --- |
| B1 | 0.13 | 0.0028 | no binding (tested: 100 nM) | no binding (tested: 100 nM) | no binding (tested: 100 nM) | – | – | – | – | – | – | – | – | – |
| B2 | – | – | – | – | – | no binding (tested: 100 nM) | no binding (tested: 100 nM) | no binding (tested: 100 nM) | no binding (tested: 100 nM) | no binding (tested: 100 nM) | no binding (tested: 100 nM) | no binding (tested: 100 nM) | 0.019 | 0.0014 |
